Source: patent US20240174741A1 (IMMUNOME, published 2024)

Columns and labels:
[1] = target: T1, human IL-36R-Fc (human, UniProt Q9HB29 20-335, limits assumed); assay: MSD plate assay, IL-38 on plate-bound IL-36R-Fc, detected with biotinylated anti-IL-38 clone H127C
T1 construct: Bought reagent
T1 sequence (looked up): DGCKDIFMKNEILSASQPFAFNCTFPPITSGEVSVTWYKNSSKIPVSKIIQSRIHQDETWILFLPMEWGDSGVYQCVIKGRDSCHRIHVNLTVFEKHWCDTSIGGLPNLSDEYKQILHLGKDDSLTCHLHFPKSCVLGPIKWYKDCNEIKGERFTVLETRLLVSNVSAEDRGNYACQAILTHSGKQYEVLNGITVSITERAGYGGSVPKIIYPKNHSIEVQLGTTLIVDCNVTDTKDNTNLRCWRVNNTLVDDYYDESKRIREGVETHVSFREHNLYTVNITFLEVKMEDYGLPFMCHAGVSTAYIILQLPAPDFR
Protocol: (§1) Neutralization of human IL-38 binding to IL1RAPL1 or IL-36R. Human IL1RAPL1-Fc (Sino Biological, #10177-H02H) and human IL-36R-Fc (R&D Systems) were diluted in coating Buffer (50 mM Carbonate-Bicarbonate Buffer, pH 9.4) at final concentration of 0.5 μg/mL and coated on MSD high bind plates (MSD) for approximately two hours at RT. Recombinant human IL-38 (Adipogen) was diluted in assay Diluent (1% BSA, 0.1% Tween 20, in 1×PBS). For antibody testing, anti-IL-38 antibodies were pre-incubated with IL-38 for approximately one hour at RT. IL-38 or antibody-IL-38 mixture was transferred to pre-coated MSD plates and incubated for approximately two hours at RT. After washing, the MSD plate was incubated with biotinylated mouse anti-human IL-38 (clone H127C, Thermo Fisher) at final concentration of 100 ng/mL and Sulfo-Tag-Streptavidin (MSD) at final concentration of 100 ng/mL for 1 hour at RT. Binding of IL-38 to plate-bound IL1RAPL1-Fc or human IL-36R-Fc was detected using the Meso Sector S 600 plate reader. Data are plotted using GraphPad Prism version 9.0.1. Dose response curves were fitted with “[Inhibitor] vs. response—Variable slope (four parameters)” method.

[2] = target: T2, Human IL1RAPL1-Fc (human, UniProt Q9NZN1 19-357, limits assumed); assay: MSD plate assay, IL-38 on plate-bound IL1RAPL1-Fc, detected with biotinylated anti-IL-38 clone H127C
T2 construct: Bought reagent
T2 sequence (looked up): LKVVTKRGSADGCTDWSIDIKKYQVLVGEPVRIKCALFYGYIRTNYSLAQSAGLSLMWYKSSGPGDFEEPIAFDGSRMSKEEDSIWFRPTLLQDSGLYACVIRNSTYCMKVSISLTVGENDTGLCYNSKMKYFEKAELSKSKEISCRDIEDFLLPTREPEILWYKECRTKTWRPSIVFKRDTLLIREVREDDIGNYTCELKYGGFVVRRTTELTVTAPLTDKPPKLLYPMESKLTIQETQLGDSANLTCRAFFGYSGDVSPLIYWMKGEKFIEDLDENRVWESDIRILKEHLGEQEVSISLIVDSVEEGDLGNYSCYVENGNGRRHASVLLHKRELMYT
Protocol: as §1

binding result [1]: binds
binding result [2]: binds
B1: human interleukin-38 (IL-38) (ligand, UniProt Q8WWZ1 1-152, looked up)
chain: MCSLPMARYYIIKYADQKALYTRDGQLLVGDPVADNCCAEKICILPNRGLARTKVPIFLGIQGGSRCLACVETEEGPSLQLEDVNIEELYKGGEEATRFTFFQSSSGSAFRLEAAAWPGWFLCGPAEPQQPVQLTKESEPSARTKFYFEQSW
notes: One entry is used for all sources of human IL-38; The Adipogen protein is called full length; also called IL1F10/IL38; IL1F10
